For test [1], the target named is TMEM233 (human) (UniProt B4DJY2).
The target is the same in test [2]. Nature of the test: fluorescent ligand binding to cells (plate reader); ExTxA-488 (1–300 nM) with mock- or TMEM233-transfected HEK293 and HEK293-NaV1.7 cells in suspension, 250 mM NaCl, 25 mM HEPES, pH 7, 30 min at 4 °C, washed three times; fluorescence intensity read in 384-well plate; EC50 told for NaV1.7/TMEM233 co-expressing cells.

pEC50: −log10 of the molar value.

In general, pEC50 refers to −log10 of the EC50, conventionally taken in molar units.

Chain of TMEM233 (human) (B4DJY2 whole entry): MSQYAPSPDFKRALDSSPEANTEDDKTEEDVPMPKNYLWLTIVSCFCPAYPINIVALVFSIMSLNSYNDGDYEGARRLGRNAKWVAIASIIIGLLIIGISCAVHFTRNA
Chain of Alexa488-tagged excelsatoxin A (peptide) (P0DQP3 38-73 limits assumed): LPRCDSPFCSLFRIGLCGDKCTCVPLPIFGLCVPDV

As for “Alexa488-tagged excelsatoxin A (peptide)”, the EC50 of functional potency on NaV1.7 inactivation in NaV1.7/TMEM233 co-expressing cells (electrophysiology) with TMEM233 (human) [1] was 80.9 nM. For the same substance, in the test with TMEM233 (human) [2], the negative logarithm of the EC50 (pEC50) was 6.90.

(Values after paper PMC10147923, “Pain-causing stinging nettle toxins target TMEM233 to modulate NaV1.7 function” (Nature Communications, 2023).)
